Patent US20200277359A1 (published 2020)
Substitutions are numbered along the chain they refer to.

B1: human mAb 5O14 (antibody, V domains shown)
VH: QVQLVQSGGRVVQAGRSLRLSCAASGFTFSMYGVHWVRQAPGKGLEWVAVIWNDGSKEYYGDSVKGRFTISRDNSRNTLYLQMNSLRVDDTAVYFCARDGIPDPERGDYGGLDYWGQGTLVTVSS
VL: QTVVTQFPSSPFASVGDGVTITCRARQSISSYVNWYQQKPGKAPKLLIYATSSLQSGVPSRFSGSGYGTDFTLTISGLQPEDFATYYCQQSYSFPRTFGQGTKVEIK
B2: human mAb 2C2 (antibody, V domains shown)
VH: QVQLVQSGGGLVQPGRSLTLSCAASGFTFDVYAMHWVRQAPGKGLEWVAGISWNSGSVGYADSMKGRFTISRDNAKNSLYLQINSLRAEDTALYYCAKAFWFGELSGYGMDVWGQGTLVTVSS
VL: QAVVTQPPSASGFPGQSVTISCTGTSSDVGSYNYVSWYQQHPGKAPKLIIYAVTRRPSGVPERFSGSKSGNTASLTVSGLQAEDEADYYCTSYAGNNKDVFGTGTKVTVL
B3: human mAb 4J21 (antibody, V domains shown)
VH: QVQLVQSGSELKKPGASVKVSCKASGYSFTSYSINWVRQAPGQGPEWMGWIDTNTGNPTYAQDFAGRFVFSLDTSVTTAYLQISSLKAGDTAVYYCATYYVDLWGSYRQDYYGMDVWGHGTLVTVSS
VL: QSVVTQPPSVSGTPGQGVTISCSGGSSNIGSNPVNWYQMVPGTAPKLLLYTNNQRPSGVPDRFSGSKSGTSASLAINGLQSEDEADYYCAVWDDSLSGRWVFGGGTKLTVL
B4: human mAb 2B4 (antibody, V domains shown)
VH: QVQLVQSGSELKKPGASVKVSCKASGYSFTSYSINWVRQAPGQGPEWMGWIDTNTGNPTYAQDFAGRFVFSLDTSVTTAYLQISSLKAGDTAVYYCATYYVDLWGSYRQDYYGMDVWGH
VL: B3 VL with V4L, V10A, G17R, L108V

Tests used:
[1] = target: T1, Recombinant CHIKV E2 ectodomain protein (corresponding to the CHIKV-LR2006 strain) (Chikungunya virus strain LR2006); assay: ELISA on coated E2 ectodomain, mAb at 10 µg/mL
T1 construct: extracellular domain; also called CHIKV-LR2006 E2 ectodomain; purified E2 protein

Recombinant CHIKV p62-E1 = target: T2, Recombinant CHIKV p62-E1 (Chikungunya virus); assay: SPR (Biacore T100), IgG captured on anti-human IgG, p62-E1 injected
T2 construct: also called soluble CHIKV p62-E1; monomeric E1 protein

Row | Binder | OD450 [1] [od] | Kd (Recombinant CHIKV p62-E1) [nM] | koff (Recombinant CHIKV p62-E1) [s⁻¹] | kon (Recombinant CHIKV p62-E1) [M⁻¹ s⁻¹] | t1/2 (Recombinant CHIKV p62-E1) [min]
1 | B1 | > 1 | 1.15 | 0.000911 | 790000 | 13
2 | B2 | – | – | – | – | 19
3 | B3 | 0.5 to 0.99 | – | – | – | 186
4 | B4 | 0.5 to 0.99 | – | – | – | –
